Assay [1] has as its target T1, endogenous mouse GIPR (mouse (endogenous in primary mouse adipocytes and Neuro-2a cells)) (UniProt Q0P543).
T1 sequence: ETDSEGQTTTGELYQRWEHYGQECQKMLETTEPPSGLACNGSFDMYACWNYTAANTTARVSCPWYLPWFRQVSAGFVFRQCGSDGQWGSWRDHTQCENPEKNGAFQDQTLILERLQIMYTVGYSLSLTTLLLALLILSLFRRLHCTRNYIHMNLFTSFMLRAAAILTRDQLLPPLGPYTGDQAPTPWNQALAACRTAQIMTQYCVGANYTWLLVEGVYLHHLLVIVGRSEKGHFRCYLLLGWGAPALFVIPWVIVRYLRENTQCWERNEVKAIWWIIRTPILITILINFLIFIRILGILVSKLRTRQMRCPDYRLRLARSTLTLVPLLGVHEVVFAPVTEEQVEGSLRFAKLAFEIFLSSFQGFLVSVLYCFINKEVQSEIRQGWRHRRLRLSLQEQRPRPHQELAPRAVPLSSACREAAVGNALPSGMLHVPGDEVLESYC

Assay [2] deals with T1, endogenous mouse GIPR (mouse (endogenous in primary mouse adipocytes and Neuro-2a cells)). This is another data set of the same source.
Assay [3] has as its target T2, endogenous rat GIPR in INS1 832/13 cells (rat (endogenous in INS1 832/13)) (UniProt P43219).
T2 sequence: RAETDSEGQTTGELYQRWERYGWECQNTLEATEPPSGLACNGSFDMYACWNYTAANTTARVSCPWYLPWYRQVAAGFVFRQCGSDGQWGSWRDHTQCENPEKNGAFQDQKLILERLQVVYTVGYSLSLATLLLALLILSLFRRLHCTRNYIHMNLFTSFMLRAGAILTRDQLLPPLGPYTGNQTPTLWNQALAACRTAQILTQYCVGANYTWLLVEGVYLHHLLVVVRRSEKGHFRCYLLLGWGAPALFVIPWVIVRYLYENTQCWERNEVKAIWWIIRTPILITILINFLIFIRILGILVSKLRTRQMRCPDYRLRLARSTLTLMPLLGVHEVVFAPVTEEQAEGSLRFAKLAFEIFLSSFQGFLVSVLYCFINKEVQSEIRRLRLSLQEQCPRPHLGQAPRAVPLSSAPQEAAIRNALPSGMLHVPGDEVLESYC

Residue numbers refer to the chain shown, from its start.

B1: mouse GIP (ligand)
peptide: YAEGTFISDYSIAMDKIRQQDFVNWLLAQRGKKSDWKHNITQ
In assay [1], B1 gave an EC50 of cAMP production in mouse primary adipocytes differentiated in vitro of 3.8 nM and an EC50 of glycerol release (lipolysis) from primary mouse adipocytes differentiated in vitro of 13 nM. The same molecule had an EC50 of cAMP production in mouse Neuro-2a neuroblastoma cells in assay [2] of 6.35 nM.

B2: rat GIP (ligand)
peptide: B1 peptide with R30K, S34N, I40L
B2 displayed an EC50 of cAMP production in rat INS1 832/13 cells in assay [3] of 0.99 nM.
